In US20250188185A1 (KOREA UNIVERSITY RESEARCH AND BUSINESS FOUNDATION, published 2025):
Substitutions are numbered along the chain they refer to.

B1: rituximab Fc variant RTX-PS101 (antibody, human IgG1, kappa)
heavy: QVQLQQPGAELVKPGASVKMSCKASGYTFTSYNMHWVKQTPGRGLEWIGAIYPGNGDTSYNQKFKGKATLTADKSSSTAYMQLSSLTSEDSAVYYCARSTYYGGDWYFNVWGAGTTVTVSAASTKGPSVFPLAPSSKSTSGGTAALGCLVKDYFPEPVTVSWNSGALTSGVHTFPAVLQSSGLYSLSSVVTVPSSSLGTQTYICNVNHKPSNTKVDKKAEPKSCDKTHTCPPCPAPELLGGPSVFLLPPKIKDTLMISRTPEVTCVVVDVSHEDPEVKFNWYVDGVEVHNAKTKPPEEQYNSTLRVVSILTVLHQDWLNGKEYKCKVSNKALPLPEEKTISKQKGQPREPQVYTLPPSRDELTKNQVSLTCLVKGFYPSDIAVEWESNGQQENNYKTTPPVLDSDGSFFLYSKLTVDKSRWQQGNVFSCSVMHEALHNHYTQKSLSLSPGK
light: QIVLSQSPAILSASPGEKVTMTCRASSSVSYIHWFQQKPGSSPKPWIYATSNLASGVPVRFSGSGSGTSYSLTISRVEAEDAATYYCQQWTSNPPTFGGGTKLEIKRTVAAPSVFIFPPSDEQLKSGTASVVCLLNNFYPREAKVQWKVDNALQSGNSQESVTEQDSKDSTYSLSSTLTLSKADYEKHKVYACEVTHQGLSSPVTKSFNRGEC
B2: rituximab Fc variant RTX-PS107 (antibody, human IgG1, kappa)
heavy: B1 heavy with D360G
light: B1 light
B3: rituximab Fc variant RTX-PS102 (antibody)
heavy: B1 heavy with H228R, V307I
light: B1 light

Experiments:
[1] = target: T1, cynomolgus monkey FcγRIII-GST (cynomolgus monkey, UniProt Q8SPW2 17-208); assay: ELISA, cynomolgus monkey FcγRIII-GST coated at 4 µg/ml, antibody titrated, HRP-Protein L detection
T1 construct: GST fusion form made in Expi293F cells, purified on glutathione resin; not shown: GST fusion partner
Experimental: Specifically, 50 μl of mouse FcγRIV-GST and cynomolgus monkey FcγRIII-GST diluted to 4 μg/ml in 0.05 M Na₂CO₃ pH 9.6 were immobilized on a flat bottom polystyrene high bind 96-well plate (Costar, 3590) for 16 hours at 4° C., respectively, and then blocked with 100 μl of 4% skim milk (GenomicBase, SKI400) at room temperature for 2 hours. […] After washing, antibody reaction was performed for 1 hour at room temperature, and then washed using 50 μl of HRP-Protein L (GenScript, M00098). 50 μl of a 1-Step Ultra TMB-ELISA substrate solution (Thermo Fisher Scientific, 34028) was added to develop color, and then added with 50 μl each of 2 M H₂SO₄ to terminate the reaction. Absorbance was measured using an Epoch microplate spectrophotometer (BioTek).

[2] = target: T2, FcγRIIIa-158F-GST (human, UniProt P08637 17-208); assay: ELISA, FcγRIIIa-158F-GST coated at 4 µg/ml, antibody titrated, HRP-Protein L detection
T2 construct: not shown: GST (glutathione S-transferase) fusion partner
Experimental: After washing, antibody reaction was performed for 1 hour at room temperature, and then washed using 50 μl of HRP-Protein L (GenScript, M00098). 50 μl of a 1-Step Ultra TMB-ELISA substrate solution (Thermo Fisher Scientific, 34028) was added to develop color, and then added with 50 μl each of 2 M H₂SO₄ to terminate the reaction. Absorbance was measured using an Epoch microplate spectrophotometer (BioTek).

T1 sequence (Q8SPW2 17-208): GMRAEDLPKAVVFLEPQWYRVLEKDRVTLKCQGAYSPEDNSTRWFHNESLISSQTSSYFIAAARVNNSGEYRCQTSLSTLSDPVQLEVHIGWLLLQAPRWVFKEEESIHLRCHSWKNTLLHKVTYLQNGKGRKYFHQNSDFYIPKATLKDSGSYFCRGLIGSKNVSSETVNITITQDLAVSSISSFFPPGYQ
T2 sequence (P08637 17-208): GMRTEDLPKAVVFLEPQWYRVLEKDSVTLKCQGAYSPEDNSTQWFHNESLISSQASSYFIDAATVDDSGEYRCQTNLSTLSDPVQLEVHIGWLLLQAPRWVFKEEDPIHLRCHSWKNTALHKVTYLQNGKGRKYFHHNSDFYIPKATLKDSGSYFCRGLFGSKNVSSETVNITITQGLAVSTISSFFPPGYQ

| Binder | EC50 (read off the curve) [1] [nM] | EC50 (read off the curve) [2] [nM] |
| --- | --- | --- |
| B1 | ~3 | ~3 |
| B2 | ~3 | ~3 |
| B3 | ~3 |  |
